Reference: patent US20150166656A1
Where no end group is shown, it is not given here. [ ]: non-standard residue; d: D form. pGlu = O=C1CC[C@@H](C(=O)O)N1

Legend:
MAb 400-4 = assay: MAb inhibition ELISA; free peptide inhibits 400-4 binding to coated hG17(1-9)-“Ala”-BSA
MAb 458-5 = assay: MAb inhibition ELISA; free peptide inhibits 458-5 binding to the coated target conjugate
MAb 400-1 = assay: MAb inhibition ELISA; free peptide inhibits 400-1 binding to coated hG17(1-9)-“Ala”-BSA
MAb 458-2 = assay: MAb inhibition ELISA; free peptide inhibits 458-2 binding to the coated target conjugate
MAb 458-4 = assay: MAb inhibition ELISA; free peptide inhibits 458-4 binding to the coated target conjugate
MAb 400-3 = assay: MAb inhibition ELISA; free peptide inhibits 400-3 binding to coated hG17(1-9)-“Ala”-BSA
MAb 400-2 = assay: MAb inhibition ELISA; free peptide inhibits 400-2 binding to coated hG17(1-9)-“Ala”-BSA
MAb 458-1 [1] = assay: MAb inhibition ELISA; free peptide inhibits 458-1 binding to the coated target conjugate
MAb 458-3 [2] = assay: MAb inhibition ELISA; free peptide inhibits 458-3 binding to the coated target conjugate
MAb 458-3 [3] = assay: MAb inhibition ELISA; free peptide against 458-3 binding to the coated target conjugate
MAb 445-1 = assay: MAb inhibition ELISA; free peptide inhibits 445-1 binding to coated hG34(16-34)-Gly 35-BSA
MAb 445-2 = assay: MAb inhibition ELISA; free peptide inhibits 445-2 binding to coated hG34(16-34)-Gly 35-BSA
MAb 458-1 [4] = assay: MAb inhibition ELISA; free peptide against 458-1 binding to the coated target conjugate
MAb 401-2 = assay: MAb inhibition ELISA; free peptide inhibits 401-2 binding to the coated G34 N-terminal peptide-BSA

| IC50 (MAb 400-4) [nM] | Inhibition at 10 nmol/ml (250 pmoles/well) (MAb 458-5) [%] | IC50 (MAb 400-1) [nM] | Inhibition at 10 nmol/ml (250 pmoles/well) (MAb 458-2) [%] | Inhibition at 10 nmol/ml (250 pmoles/well) (MAb 458-4) [%] | IC50 (MAb 400-3) [nM] | IC50 (MAb 400-2) [nM] | Inhibition at 10 nmol/ml (250 pmoles/well) (MAb 458-1 [1]) [%] | Inhibition at 10 nmol/ml (250 pmoles/well) (MAb 458-3 [2]) [%] | Inhibition at 10 nmol/ml (250 pmoles/well) (MAb 458-3 [3]) [%] | IC50 (MAb 445-1) [nM] | IC50 (MAb 445-2) [nM] | Inhibition at 10 nmol/ml (250 pmoles/well) (MAb 458-1 [4]) [%] | IC50 (MAb 401-2) [nM] | Binder |
| --- | --- | --- | --- | --- | --- | --- | --- | --- | --- | --- | --- | --- | --- | --- |
|  |  |  |  |  |  |  |  |  | 1.2 |  |  |  |  | EGPWLEEEE [hG17(9)] |
|  |  |  |  |  |  |  |  |  |  | 4000 | 13000 |  |  | CPPPPSSYGWMDFG [hG17(12-17)-Gly18 peptide …] |
|  | 92 |  | 84.8 | 83.4 |  |  | 93.8 | 84.8 |  |  |  |  |  | DYMGWMDF-NH2 [CCK (26-33) unsulfated] |

Second part, the binder before the results:

| Binder | IC50 (MAb 400-4) [nM] | Inhibition at 10 nmol/ml (250 pmoles/well) (MAb 458-5) [%] | IC50 (MAb 400-1) [nM] | Inhibition at 10 nmol/ml (250 pmoles/well) (MAb 458-2) [%] | Inhibition at 10 nmol/ml (250 pmoles/well) (MAb 458-4) [%] | IC50 (MAb 400-3) [nM] | IC50 (MAb 400-2) [nM] | Inhibition at 10 nmol/ml (250 pmoles/well) (MAb 458-1 [1]) [%] | Inhibition at 10 nmol/ml (250 pmoles/well) (MAb 458-3 [2]) [%] | Inhibition at 10 nmol/ml (250 pmoles/well) (MAb 458-3 [3]) [%] | IC50 (MAb 445-1) [nM] | IC50 (MAb 445-2) [nM] | Inhibition at 10 nmol/ml (250 pmoles/well) (MAb 458-1 [4]) [%] | IC50 (MAb 401-2) [nM] |
| --- | --- | --- | --- | --- | --- | --- | --- | --- | --- | --- | --- | --- | --- | --- |
| EGPWLEEEEEAYGWMDF (N-terminal pyroglutamic acid (pE); C-terminal Phe-NH2 (amide)) [human gastrin-17 (G17)] | 620 | 91.9 | 2030 | 86 | 88.4 | 1080 | 85 | 94.3 | 92.4 |  |  |  |  |  |
| [pGlu]GPWLEEEEEAYGWMDFG (ends and bridges not checked) [glycine-extended gastrin-17 (G17-Gly)] | 699 |  | 1790 |  |  | 1390 | 77 |  |  |  | 700 | 5000 | 2.1 |  |
| [pGlu]LGPQGPPHLVADPSKKEGPWLEEEEEAYGWMDF-NH2 (ends and bridges not checked) [human gastrin-34 (G34)] |  | 91.5 |  | 84.5 | 86.7 |  |  | 93.5 | 90.7 |  |  |  |  | 700 |
